From patent publication US20210347848A1 (ALX ONCOLOGY, published 2021) come the findings set out here.

Experiment [1] has as its target T1, human CD47 (human, UniProt Q08722 19-135).
T1 construct: Soluble analyte in SPR; also called hCD47
In words: SPR; the reference itself (wild type SIRPγ D1 domain).

Experiment [2] has as its target T1, human CD47. In words: SPR, decoy captured on biotinylated Protein A, CD47 as analyte, 25 C. How it is done:
(§1) The binding affinities each decoy polypeptides for CD47 from various species (e.g., human CD47, cynomolgus monkey CD47, and mouse CD47) were determined using indirect capture via biotinylated Protein A (via NLC chip). All experiments were performed at 25° C. using a Surface Plasmon Resonance (SPR)-based ProteOn XPR36 biosensor (BioRad, Inc., Hercules, Calif.). The running buffer was PBS at pH 7.4 with 0.01% Tween-20 (PBST+). All analytes were used at their nominal concentrations as determined by A₂₈₀ absorbance and using their molar calculated extinction coefficients.
(§2) As a first step, 15 μg/mL biotinylated protein A (Thermofisher) was injected at 30 μL/min for 120 seconds over the NLC chip to obtain an immobilization response of about 1000-1200 RUs. Next, decoy polypeptides (about 100-160 nM) were injected for 80 seconds at 30 μL/min. The CD47 analytes (from human, cynomolgus monkey, and mouse) were subsequently injected in a “one-shot” kinetic mode at nominal concentrations of 100 nM, 33 nM, 11 nM, 3.7 nM, 1.2 nM, and 0 nM. Association times were monitored for 60 seconds at 25 μL/min, and dissociation times were monitored for 500 seconds. The surfaces were regenerated with a 2:1 v/v blend of Pierce IgG elution buffer/4M NaCl. Biosensor data were double-referenced by subtracting the interspot data (containing no immobilized protein) from the reaction spot data (immobilized protein) and then subtracting the response of a buffer “blank” analyte injection from that of an analyte injection. Double-referenced data were fit globally to a simple Langmuir model and the KD value was calculated from the ratio of the apparent kinetic rate constants (KD=kd/kₐ).

Experiment [3] deals with T1, human CD47. Described as above. How it is done: as §1, §2
This is another data set of the same source.

Another experiment has as its target T2, cynomolgus monkey CD47 (cynomolgus monkey, UniProt A0A2K5X523 19-135).
T2 construct: Soluble analyte in SPR; construct not described; also called Cyno CD47
In words: SPR, decoy captured on biotinylated Protein A (NLC chip), CD47 as analyte.

The next experiment addresses T3, mouse CD47 (mouse, UniProt Q61735 19-140, limits assumed).
T3 construct: Soluble analyte in SPR; construct not described
T3 sequence (looked up): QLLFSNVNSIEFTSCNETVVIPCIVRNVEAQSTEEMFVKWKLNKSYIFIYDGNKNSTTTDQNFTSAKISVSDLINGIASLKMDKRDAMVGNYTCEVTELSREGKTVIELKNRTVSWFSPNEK
The description is as above.

Read-outs that look alike come from different tables or passages of the source.

T1 sequence (Q08722 other isoform, or with tags, fused parts or gaps limits assumed): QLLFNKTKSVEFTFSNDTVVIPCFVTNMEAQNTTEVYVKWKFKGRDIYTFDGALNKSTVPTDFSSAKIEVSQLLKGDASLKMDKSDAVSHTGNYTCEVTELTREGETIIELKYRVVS

B1: Decoy polypeptide R (Fc fusion)
chain: EEELQMIQPEKLLLVTVGKTATLHCTVTSLLPVGPVLWFRGVGPGRELIYNQKEGHFPRVTTVSDLTKRNNMDFSIRISSITPADVGTYYCVKFRKGSPENVEFKSGPGTEMALGAKPSDKTHTCPPCPAPEAAGAPSVFLFPPKPKDTLMISRTPEVTCVVVDVSHEDPEVKFNWYVDGVEVHNAKTKPREEQYASTYRVVSVLTVLHQDWLNGKEYKCKVSNKALPAPIEKTISKAKGQPREPQVYTLPPSREEMTKNQVSLTCLVKGFYPSDIAVEWESNGQPENNYKTTPPVLDSDGSFFLYSKLTVDKSRWQQGNVFSCSVMHEALHNHYTQKSLSLSPG
notes: also called wild type SIRPγ
As to B1, in the experiment with human CD47 [1], the “Fold improvement in KD vs wild type” value was 1 fold. For the same molecule, the equilibrium dissociation constant (Kd) with human CD47 [2] and with human CD47 [3] was 2190 nM throughout. In addition, the binding result with cynomolgus monkey CD47 and with mouse CD47 was “no binding (tested: CD47 analyte up to 100 nM)” each time.
